The assay has as its target human HLA-A2 MHC class I molecule on the surface of target cells with no C2 epitope-peptide delivered or added (human). The assay can be described thus: flow cytometry, TCR STAR multimer staining of untreated (buffer only) target cells. Background: A flow cytometer gives signals particle by particle.

Substance “TCR CMV-pp65-PE STAR multimer reagent (Altor Bioscience Corp.)” returned a percent of cells stained of less than 5%.

Source of the values: patent US20180243432A1.
